Reference: the supplement of paper PMC10126150
± gives the standard deviation of the averaged measurements.

System: ATP
Assay: switch fluorescence ratio, 500 uM ATP over buffer (Cy3 cluster intensity, sum of 5 cycles each) (fold (ratio)); higher = stronger signal-on switching upon ATP binding; sequences stand for … in TCGTCGGCAGCGTCAGATGTGTATAAGAGACAGTTTTTTTTTTTTTTTTTTTTTTTTT…TC
Conditions: aptamer strand: ATP DNA aptamer (quencher-CACCTGGGGGAGTATTGCGGAGGAAGG + anchor), 100 nM annealed; ATP concentration: 500 uM
Method in brief: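 Exposure to 500 uM ATP lasted 15 min at 22 °C before imaging, and a selection-buffer image was taken beforehand, for Cy3-labelled switching-strand clusters on a modified Illumina MiSeq flow-cell annealed to 100 nM quencher-labelled ATP aptamer. Five buffer/ATP cycles were run with NaOH stripping and re-annealing between them. The fluorescence ratio per cluster is summed target-cycle over summed buffer-cycle Cy3 intensity, averaged per switch-domain sequence. Clusters outside 100-1000 RFU were excluded.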

Sequence	switch fluorescence ratio
TACTGCGGCA	1.04 ± 0.031
TACTGGGCTT	1.024 ± 0.0014
TACTGGGGCA	0.9842 ± 0.0028
TACTGTGTAT	1.01 ± 0.035
TACTGTTCGA	1.05 ± 0.016
TACTTAAAGT	1 ± 0.022
TACTTACTCG	1.241 ± 0.0038
TACTTATCTG	1.01 ± 0.019
TACTTCTGTG	1 ± 0.018
TACTTGAGGG	1.01 ± 0.019
TACTTGGTT	1.01 ± 0.02
TACTTTGTC	1.03 ± 0.021
TACTTTGTGA	1.1 ± 0.15
TACTTTTGGA	1.02 ± 0.04
TACTTTTTAT	1.01 ± 0.018
TAGAAACCCG	1.04 ± 0.024
TAGAAAGACT	1.07 ± 0.067
TAGAAATGGG	1.19 ± 0.33
TAGAAGAAGG	0.9842 ± 0.0031
TAGAAGCCCC	1.09 ± 0.039
TAGAAGCCTG	1.03 ± 0.053
TAGAAGGGGC	0.989 ± 0.067
TAGAAGTTGT	1 ± 0.022
TAGAATGGCC	1.01 ± 0.041
TAGAATGTGG	0.994 ± 0.042

Sequence	switch fluorescence ratio
TAGACCGTTC	1.108 ± 0.0068
TAGACGTAGG	1.03 ± 0.028
TAGAGAAGCC	1.04 ± 0.025
TAGAGAGCT	1.02 ± 0.015
TAGAGAGGCG	0.9981 ± 0.0084
TAGAGCTAAT	1.09 ± 0.17
TAGAGCTGTT	0.969 ± 0.031
TAGAGGCCTG	1.04 ± 0.017
TAGAGGGATG	0.989 ± 0.015
TAGAGGGGAA	1.024 ± 0.0034
TAGAGGGGG	1.01 ± 0.014
TAGAGGTAAT	1.01 ± 0.022
TAGAGGTCTT	0.98 ± 0.016
TAGAGTAGTG	0.999 ± 0.05
TAGAGTTAAG	0.9747 ± 0.0046
TAGATAAATT	0.9965 ± 0.008
TAGATATGCG	1.03 ± 0.015
TAGATATTTA	1.01 ± 0.0087
TAGATGCACA	0.9516 ± 0.0037
TAGATGGGGG	1 ± 0.011
TAGATGTAAC	0.975 ± 0.029
TAGATGTTCG	0.978 ± 0.044
TAGATTGATG	1.0281 ± 0.00078
TAGATTTGTT	1.01 ± 0.03
TAGATTTTTA	0.987 ± 0.028

Sequence	switch fluorescence ratio
TAGATTTTTT	1.02 ± 0.019
TAGCAAAGAA	1.03 ± 0.03
TAGCACAGTG	1.15 ± 0.15
TAGCAGGCTA	1 ± 0.013
TAGCAGGGTC	1.089 ± 0.0072
TAGCATAACC	1.181 ± 0.0097
TAGCATGCGG	1.01 ± 0.019
TAGCATGTTC	1.09 ± 0.049
TAGCATTCTA	1.013 ± 0.0054
TAGCATTTTT	1.07 ± 0.14
TAGCCAAGTC	1.02 ± 0.01
TAGCCAGGGG	1.2 ± 0.076
TAGCCATTGG	1.05 ± 0.081
TAGCCCCCAG	1.6 ± 0.78
TAGCCCGTGG	1.02 ± 0.027
TAGCCGGGGA	1.01 ± 0.032
TAGCCGTCTA	1.058 ± 0.0034
TAGCGAATAG	1.19 ± 0.043
TAGCGCATGG	1.08 ± 0.046
TAGCGGGGGA	1.04 ± 0.019
TAGCGGGGTT	0.9757 ± 0.0054
TAGCGTATGA	1.03 ± 0.014
TAGCTAATTT	0.979 ± 0.027
TAGCTACTTC	1.73 ± 0.93
TAGCTATGTG	0.982 ± 0.038

Sequence	switch fluorescence ratio
TAGCTCCGGG	1.055 ± 0.0063
TAGCTCGGGA	0.9742 ± 0.0097
TAGCTCGGTG	1 ± 0.042
TAGCTGAGTT	0.984 ± 0.014
TAGCTGGAGG	0.998 ± 0.035
TAGCTGGATG	0.98618 ± 0.00039
TAGCTGGCAC	1.02 ± 0.0034
TAGCTGTTAT	0.997 ± 0.03
TAGCTGTTTT	1.02 ± 0.02
TAGCTTGTTG	1.02 ± 0.025
TAGCTTTTTA	1 ± 0.026
TAGGAAATTT	1.03 ± 0.087
TAGGAAGGCA	0.967 ± 0.0024
TAGGACACGT	1.03 ± 0.012
TAGGACAGCG	0.969 ± 0.078
TAGGAGCTTG	1 ± 0.042
TAGGAGGGT	1.033 ± 0.0037
TAGGAGGGTT	0.987 ± 0.026
TAGGAGTTGT	0.995 ± 0.016
TAGGATGCAC	1.014 ± 0.0033
TAGGATTAAT	0.999 ± 0.012
TAGGCCAGTT	0.996 ± 0.011
TAGGCCGCTG	1.07 ± 0.15
TAGGCGCTAG	0.999 ± 0.011
TAGGCGTGTC	0.992 ± 0.016

Sequence	switch fluorescence ratio
TAGGCTTGAA	1.03 ± 0.028
TAGGGAAGGG	0.976 ± 0.032
TAGGGAATCA	0.97 ± 0.014
TAGGGACTAG	1.02 ± 0.015
TAGGGACTAT	1.02 ± 0.018
TAGGGAGAGT	1.01 ± 0.022
TAGGGAGCCT	0.964 ± 0.016
TAGGGAGGCT	0.992 ± 0.038
TAGGGATGGG	1.02 ± 0.019
TAGGGCAGGG	1 ± 0.0022
TAGGGCGAGG	0.9899 ± 0.001
TAGGGCGCAG	0.959 ± 0.028
TAGGGCGGAG	0.957 ± 0.025
TAGGGCGGGT	0.972 ± 0.039
TAGGGCTGTG	0.995 ± 0.059
TAGGGGAAAG	0.99 ± 0.052
TAGGGGAGCT	0.974 ± 0.067
TAGGGGATTG	1 ± 0.02
TAGGGGCAGC	1.01 ± 0.0054
TAGGGGCGAG	0.989 ± 0.048
TAGGGGCGAT	1.01 ± 0.032
TAGGGGCTCG	0.999 ± 0.032
TAGGGGCTG	1.01 ± 0.015
TAGGGGGAGC	1.01 ± 0.062
TAGGGGGGCT	0.968 ± 0.045

Sequence	switch fluorescence ratio
TAGGGGGTAG	1.01 ± 0.036
TAGGGGGTGG	1 ± 0.03
TAGGGGGTGT	0.991 ± 0.018
TAGGGGTACA	1.03 ± 0.016
TAGGGGTTGC	1.1 ± 0.11
TAGGGTAGGT	0.974 ± 0.0049
TAGGGTATGA	1.01 ± 0.02
TAGGGTGCTG	1.09 ± 0.16
TAGGGTTAAG	0.9994 ± 0.004
TAGGGTTGCA	1 ± 0.057
TAGGGTTTTC	0.988 ± 0.045
TAGGTAAAGT	0.981 ± 0.03
TAGGTAGGCA	1 ± 0.028
TAGGTAGGCT	0.974 ± 0.025
TAGGTAGGGG	0.99 ± 0.036
TAGGTAGTTT	0.969 ± 0.032
TAGGTCAGGG	0.965 ± 0.027
TAGGTCGATA	1 ± 0.023
TAGGTCGTTT	0.982 ± 0.01
TAGGTCTCAG	1.029 ± 0.0085
TAGGTCTGCG	0.978 ± 0.014
TAGGTGAAGG	1 ± 0.0069
TAGGTGACAA	1 ± 0.015
TAGGTGATTT	1.03 ± 0.023
TAGGTGGCGT	1.006 ± 0.0028

Sequence	switch fluorescence ratio
TAGGTGGCTC	1.03 ± 0.069
TAGGTGTTAT	1.02 ± 0.037
TAGGTTGTGC	0.976 ± 0.037
TAGGTTGTTG	0.969 ± 0.011
TAGGTTTAGT	0.9841 ± 0.0094
TAGGTTTTTT	0.989 ± 0.035
TAGTAAAGAT	1 ± 0.017
TAGTAAAGGT	1.022 ± 0.0068
TAGTAACTAC	1.05 ± 0.011
TAGTAATCGT	1.01 ± 0.063
TAGTAATTGA	1 ± 0.02
TAGTACCGGT	0.991 ± 0.029
TAGTACGGGC	1 ± 0.044
TAGTACTCGT	1.01 ± 0.011
TAGTAGTCAA	1.03 ± 0.011
TAGTAGTTGC	1.032 ± 0.0059
TAGTAGTTTT	1.01 ± 0.052
TAGTATATTT	0.954 ± 0.018
TAGTCATTCA	0.981 ± 0.026
TAGTCCATCG	0.998 ± 0.012
TAGTCCTATG	0.969 ± 0.021
TAGTCGCGTC	1.004 ± 0.0066
TAGTCGGGGA	1.03 ± 0.059
TAGTCGGTGG	0.9978 ± 0.0032
TAGTCTGCGT	1.04 ± 0.037

Sequence	switch fluorescence ratio
TAGTCTGGGC	0.986 ± 0.037
TAGTGACTAG	1.05 ± 0.021
TAGTGAGTCC	1.08 ± 0.1
TAGTGCGGGA	1.02 ± 0.073
TAGTGGGGCC	1.01 ± 0.019
TAGTGGGGGG	0.989 ± 0.026
TAGTGGTTCG	1.02 ± 0.023
TAGTGTGGGG	1.04 ± 0.034
TAGTGTGTTT	0.9823 ± 0.0095
TAGTGTTGTG	0.971 ± 0.055
TAGTTAGGGT	0.9959 ± 0.0093
TAGTTAGTGA	0.986 ± 0.034
TAGTTATGGT	1.04 ± 0.019
TAGTTATTAG	1 ± 0.04
TAGTTATTGA	1.01 ± 0.038
TAGTTCTTAA	0.984 ± 0.064
TAGTTGGGCG	0.984 ± 0.098
TAGTTGTAGG	1.04 ± 0.051
TAGTTGTCCC	1.02 ± 0.045
TAGTTGTTTG	0.9989 ± 0.0085
TAGTTTAGTT	1 ± 0.015
TAGTTTCTAC	0.992 ± 0.033
TAGTTTGAAC	1.01 ± 0.05
TAGTTTGGGC	0.983 ± 0.019
TAGTTTTGGG	0.9807 ± 0.0026
